This test concerns the target T1, His-PRL-2 (human, UniProt Q12974 1-167).
T1 construct: human PRL-2 (PTP4A2), 19-kDa construct; also called recombinant PRL-2; 19-kDa PRL-2 construct; source: Escherichia coli BL21, purified
T1 sequence (looked up): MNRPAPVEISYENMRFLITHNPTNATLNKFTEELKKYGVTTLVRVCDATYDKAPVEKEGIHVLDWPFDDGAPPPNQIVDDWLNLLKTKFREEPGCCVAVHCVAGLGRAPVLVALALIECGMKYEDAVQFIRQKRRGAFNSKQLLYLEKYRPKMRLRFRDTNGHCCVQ
The test is described as follows: pull-down; in vitro; 20 ng GST-CBS on glutathione-Sepharose beads, equimolar His-PRL-2 (~10 ng), 4 °C 1 h; 150 mM NaCl, 20 mM Tris, 1% Triton-X, 5 mM 2-mercaptoethanol; without inhibitor (control). The conditions noted are these: both partners purified.

B1: GST-CBS (Bateman module of human CNNM3, amino acids 302-452) (domain or fragment, UniProt Q8NE01 302-452, looked up)
chain: SDLSKGVLRCRTVEDVLTPLEDCFMLDASTVLDFGVLASIMQSGHTRIPVYEEERSNIVDMLYLKDLAFVDPEDCTPLSTITRFYNHPLHFVFNDTKLDAVLEEFKRGKSHLAIVQKVNNEGEGDPFYEVLGLVTLEDVIEEIIRSEILDE
notes: human CNNM3, Bateman module, amino acids 302-452; also called GST-2xCBS; CBS tandem domain of CNNM3; source: Escherichia coli BL21, purified
With B1, the binding result was “binds”.

Source of the values: PMC4865918, “Inhibition of PRL-2·CNNM3 Protein Complex Formation Decreases Breast Cancer Proliferation and Tumor Growth*” (The Journal of Biological Chemistry, 2016).
